For one molecule, Kd results are on record in article PMC9396398, “Crystal structure of Ankyrin-G in complex with a fragment of Neurofascin reveals binding mechanisms required for integrity of the axon initial segment” (The Journal of Biological Chemistry, 2022).

Holding throughout (test): ITC
For orientation: Isothermal titration calorimetry measures the heat released or taken up as one component is titrated into another.

One test concerns the target T1, AnkG R1-24 L343Q, L376Q (Rattus norvegicus).
T1 chain: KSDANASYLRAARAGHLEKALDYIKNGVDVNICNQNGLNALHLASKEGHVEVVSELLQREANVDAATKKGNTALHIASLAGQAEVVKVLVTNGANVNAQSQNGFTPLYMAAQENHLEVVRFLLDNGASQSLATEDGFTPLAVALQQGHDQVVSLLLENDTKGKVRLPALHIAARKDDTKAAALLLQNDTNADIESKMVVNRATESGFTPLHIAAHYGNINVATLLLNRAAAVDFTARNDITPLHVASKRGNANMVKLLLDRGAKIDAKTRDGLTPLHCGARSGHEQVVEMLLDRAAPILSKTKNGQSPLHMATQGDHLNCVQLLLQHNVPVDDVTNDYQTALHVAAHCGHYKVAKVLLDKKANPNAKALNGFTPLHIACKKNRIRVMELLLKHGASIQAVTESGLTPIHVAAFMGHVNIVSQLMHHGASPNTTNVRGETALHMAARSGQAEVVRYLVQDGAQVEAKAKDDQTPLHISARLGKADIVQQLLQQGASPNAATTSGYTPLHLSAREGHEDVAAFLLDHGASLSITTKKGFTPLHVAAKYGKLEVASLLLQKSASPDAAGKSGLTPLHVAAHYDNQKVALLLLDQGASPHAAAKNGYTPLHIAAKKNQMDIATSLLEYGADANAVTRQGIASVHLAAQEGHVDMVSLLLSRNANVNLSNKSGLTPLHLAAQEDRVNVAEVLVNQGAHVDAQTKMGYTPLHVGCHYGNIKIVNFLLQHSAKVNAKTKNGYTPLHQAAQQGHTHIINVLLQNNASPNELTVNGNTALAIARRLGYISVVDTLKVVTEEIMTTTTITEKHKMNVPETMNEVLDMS

A further test has as its target T2, AnkG R1-24 V282Q (Rattus norvegicus).
T2 chain: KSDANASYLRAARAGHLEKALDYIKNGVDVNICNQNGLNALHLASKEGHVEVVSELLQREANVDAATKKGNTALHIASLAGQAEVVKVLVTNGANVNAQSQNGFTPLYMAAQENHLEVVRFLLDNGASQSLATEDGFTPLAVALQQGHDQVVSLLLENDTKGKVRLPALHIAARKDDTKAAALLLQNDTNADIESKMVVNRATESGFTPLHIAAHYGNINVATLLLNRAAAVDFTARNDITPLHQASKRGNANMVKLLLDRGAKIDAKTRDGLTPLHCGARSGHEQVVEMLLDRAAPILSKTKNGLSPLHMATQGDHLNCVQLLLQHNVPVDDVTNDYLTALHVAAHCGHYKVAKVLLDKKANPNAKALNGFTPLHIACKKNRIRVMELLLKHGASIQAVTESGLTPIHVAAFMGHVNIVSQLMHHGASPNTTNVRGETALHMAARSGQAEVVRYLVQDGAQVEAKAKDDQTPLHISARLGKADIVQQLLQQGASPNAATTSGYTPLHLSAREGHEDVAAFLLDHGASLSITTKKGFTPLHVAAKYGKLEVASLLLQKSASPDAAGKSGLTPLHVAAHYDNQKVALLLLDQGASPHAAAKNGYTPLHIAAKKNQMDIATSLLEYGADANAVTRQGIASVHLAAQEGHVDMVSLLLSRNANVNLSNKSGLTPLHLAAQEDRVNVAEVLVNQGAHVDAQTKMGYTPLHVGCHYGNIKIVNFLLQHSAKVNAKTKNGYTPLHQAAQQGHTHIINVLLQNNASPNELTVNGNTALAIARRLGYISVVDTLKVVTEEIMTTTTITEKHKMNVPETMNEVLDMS

For another test, the target named is T3, AnkG R1-24 I277Q, L310Q (Rattus norvegicus).
T3 chain: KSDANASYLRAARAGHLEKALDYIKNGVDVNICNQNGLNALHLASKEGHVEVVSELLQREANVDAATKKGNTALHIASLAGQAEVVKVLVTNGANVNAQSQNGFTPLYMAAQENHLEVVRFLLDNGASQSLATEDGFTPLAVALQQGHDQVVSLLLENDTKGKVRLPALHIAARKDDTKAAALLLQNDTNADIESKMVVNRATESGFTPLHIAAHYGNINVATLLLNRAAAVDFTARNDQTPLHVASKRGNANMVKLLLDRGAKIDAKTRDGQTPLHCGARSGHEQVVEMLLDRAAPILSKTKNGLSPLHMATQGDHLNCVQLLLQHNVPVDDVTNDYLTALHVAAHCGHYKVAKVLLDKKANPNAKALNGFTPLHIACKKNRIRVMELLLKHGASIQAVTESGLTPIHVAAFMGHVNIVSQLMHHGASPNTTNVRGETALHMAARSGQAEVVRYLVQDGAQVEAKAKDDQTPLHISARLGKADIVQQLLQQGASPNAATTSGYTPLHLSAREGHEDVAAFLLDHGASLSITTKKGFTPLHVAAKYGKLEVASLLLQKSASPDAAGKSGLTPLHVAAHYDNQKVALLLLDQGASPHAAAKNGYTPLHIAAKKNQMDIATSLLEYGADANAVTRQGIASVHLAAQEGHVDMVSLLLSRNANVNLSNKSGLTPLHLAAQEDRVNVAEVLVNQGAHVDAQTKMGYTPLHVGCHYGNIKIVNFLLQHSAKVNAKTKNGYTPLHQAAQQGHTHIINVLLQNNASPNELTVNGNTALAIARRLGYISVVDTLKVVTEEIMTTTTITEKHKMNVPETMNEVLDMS

B1: Nfasc ankyrin-binding domain (ABD, residues 1187-1214) (domain or fragment, UniProt P97685 1187-1214, looked up)
chain: SDDSLVDYGEGGEGQFNEDGSFIGQYTV
notes: also called Nfasc ABD; source: E. coli BL21 (DE3), purified (Ni-NTA, size-exclusion chromatography)
With B1, the Kd worked out at 2000 nM with AnkG R1-24 L343Q, L376Q; 1300 nM in the test with AnkG R1-24 V282Q; 3000 nM with AnkG R1-24 I277Q, L310Q.

The term Kd denotes the constant that tells how readily two partners part at equilibrium. A lower Kd goes with higher affinity.
